Test results: the DeepSol protein solubility set

Experiment: soluble on expression in E. coli; label from the status in PepcDB or PDB records

With “MADSSSFFSSAFSSAKNLIPFAKNTEDKPVDADTASDAKDAKDSAIQEAVQNASAAINDVFTDAVDKLEEVKDTVVEQFSNGDEKKEEAVVEEKFDSVHVGVDGETAVQEAKEEVKEAQVVVKGVLADGTQIVEGVTDVAEAPVADEKKEETVAAPLDSAAPVEEHKEESHSSEHTEAPAHTEDSIVQADPEARIVFQGVLADGTQIIEAVSANPPCIQEESAPAAAVSEEVGEAVHVVPVDQAPEAPTSEAQDAAPIEEHVEVVHVAENASTPAATDAHEETKSAEEQTPVVDASPAQEIVKVEEHEHKEEAAPDESAPEAAHDSHVEETAAQVVDEVIEAVHVSANESAPEEHKEEVAAAATSEDQKEPAPASDEHTSESAVEGAIESVHIALTESAPVASDENTTEAAPGTVEEHKNEVHDPVDGASSDAPAEDHREAAASSESVEEPITAVHVEATESAAPADKVHEETKIDSAAETHADAPVVDASPAEDQASEVTEAPHVESAKSAPATSEDHKEDVAQATSEQVETQAPADEHKDDASPAEPTTVQDVIEAIPIVSTESTPAEHSAPAESAPALAEEHKDEAAPSEPVQDVPVEEVIEAVHIAPAESAPASVEEAAPSESTQAPVEEHKDATTAADSSHEEPKAESDAPAAESVETAPVEEHKDEASPTALESVEDVIEAVHVASTESAPAPVEDAASADSTQAPVEEQKDTAAAAEPSHEEAQADHAASVEDVIEAVHIASNESAPTTEAAPSESIQAEDHKDEAASTAEPAHEESVTVVEASHKEPQAESAAPVEENIESVHVASEESAPAPSGDAAPSESAPVSENPVEEVAVAYHVESIESVPTDAQSVEEPVVQQHVGTVEAAPEAAVDEESFDVVHVHSDAAHPETATPESGSEETFEKVEHSQVQEAPSSEEHNSSEPEIVEDVVEKQIVAAVASAPETQPEESPKKPRKLAEMAHESAFPVPYRSKLVEPFEPGQTLIVKGKTGEDSIRFTVNLHTNTADFSGNDVPLHVSVRFDEGKLVFNTFSKGEWGKEERKSNPYKKGDDIDIRIRAHDSKFQIFVDQKEVKEYEHRVPLSSITHFTIDGDVLVNYIHWGGKYYPVPYESGLAGEGLAPGKTLTVFGIPEKKAKRFHINLLKKNGDIALHLNARFDEKHVVRNSLINSAWGNEEREGKMPFEKAVGFDLEIHNEPYAFAVTVNGERFASYAHRLSPDEVNGLQIGGDVEITGIQLA” the “soluble on expression in E. coli” value was “not soluble”.
In the case of “MGSDKIHHHHHHMAEKTIVEKLQLTKYKEAVILNQPNGADYFQNLANYEEKLADKQYDLIFDFVETLEELITFVQKVIAENKLAANGYLFFAYPKKGNKKFATYVHRDELMPALKTDEEGYVDGSTLKFTRMVALDETYTVVGLKEAAKLKAKGVKKNNPSADEYADHVPLVAEFLADKGDLQAFYNNLATGYQRVWARYIYSAKQPATQEKRRLEMVDILSQGYKTKDLYRQGKK”, the “soluble on expression in E. coli” value is reported as “not soluble”.
For “MAFLRSMWGVLSALGRSGAELCTGCGSRLRSPFSFVYLPRWFSSVLASCPKKPVSSYLRFSKEQLPIFKAQNPDAKTTELIRRIAQRWRELPDSKKKIYQDAYRAEWQVYKEEISRFKEQLTPSQIMSLEKEIMDKHLKRKAMTKKKELTLLGKPKRPRSAYNVYVAERFQEAKGDSPQEKLKTVKENWKNLSDSEKELYIQHAKEDETRYHNEMKSWEEQMIEVGRKDLLRRTIKKQRKYGAEEC”, the “soluble on expression in E. coli” value was “soluble”.
With “MFDPKKLEQIAKQIHDSMPAPVKELGADVDQKVRQVIQGQLNKLDVVSREEFDVQTQVLLRTRQKLTEMEKKLSELEEKLADK” the “soluble on expression in E. coli” value was “not soluble”.
In the case of “MAHHHHHHSAALEVLFQGPGMAETKLQLFVKASEDGESVGHCPSCQRLFMVLLLKGVPFTLTTVDTRRSPDVLKDFAPGSQLPILLYDSDAKTDTLQIEDFLEETLGPPDFPSLAPRYRESNTAGNDVFHKFSAFIKNPVPAQDEALYQQLLRALARLDSYLRAPLEHELAGEPQLRESRRRFLDGDRLTLADCSLLPKLHIVDTVCAHFRQAPIPAELRGVRRYLDSAMQEKEFKYTCPHSAEILAAYR”, the “soluble on expression in E. coli” value is reported as “soluble”.
In the case of “MQYEKVKPPENGEKIRYENGKLIVPDNPIIPYFEGDGIGKDVVPAAIRVLDAAADKIGKEVVWFQVYAGEDAYKLYGNYLPDDTLNAIKEFRVALKGPLTTPVGGGYRSLNVTIRQVLDLYANVRPVYYLKGVPSPIKHPEKVNFVIFRENTEDVYAGIEWPRGSEEALKLIRFLKNEFGVTIREDSGIGIKPISEFATKRLVRMAIRYAIENNRKSVTLVHKGNIMKYTEGAFRDWGYEVAKQEFGEYCITEDELWDKYGGKQPEGKIVVKDRIADNMFQQILTRTDEYDVIALPNLNGDYLSDAAAALIGGLGIAPGSNIGDGIGVFEPVHGSAPKYAGQNKVNPTAEILTGALMFEYIGWKDASEMIKKAVEMTISSGIVTYDIHRHMGGTKVGTREFAEAVVENLQSL”, the “soluble on expression in E. coli” value is reported as “soluble”.
For “MSNILFKPTHLPISKPFHALLANILSEHQAKSEVQATSKEVVMNFRDSSYSAEDGGFHPVEIALSQSSDGQWCIEYITDFAYVGNHFPELERCLDFDFQRGDFFTAYHGWNPIVGNRDARELYQLWESNFLAYVATEAFDDISLTSAP”, the “soluble on expression in E. coli” value was “soluble”.
For “MGGNMEDVKMKCGLEIHVQIDTKSKLFCNCSTNYLDAEPNTNVCPVCLGLPGAKPLPPNKKAVEVAIMVAKMLGCKIVVDEDIYFQRKHYDYPDLPSGYQRTSTPIGVDGEFMGIGIHEVHLEEDPGQYNPSFGIVDYNRSGTPLIEIVTKPDIKSPEEAREFLKQLMTLFRYLGCLRGEGTMRADVNISIEYMGVQGNRVEVKNVNSIKGVYKVLKYELIRQKNIIKRGGEVKRETRAFLESQMITKAMRSKETAEDYRYIPDPDIQPIVISEKWVKEIEEKMPETPLAKKKRFVEEYGIDEEDAKVLVSDLDMAEMFEEVVKSLGVNKENVDLAVTWIRNELRRSLQYHKVDLYESGVKAEHIVELIKLIKEGVISQKIAKEIVDLLVINRGKKMPKELVEELGLTVIRDEDALVKAVEEAIKNNPKAVEDYLNGKKEALNFLMGQVMRLTRGRADPKRVIELLKERLDK”, the “soluble on expression in E. coli” value was “soluble”.
For “MSKGEKMKIKVGVLGATGSVGQRFVQLLADHPMFELTALAASERSAGKKYKDACYWFQDRDIPENIKDMVVIPTDPKHEEFEDVDIVFSALPSDLAKKFEPEFAKEGKLIFSNASAYRMEEDVPLVIPEVNADHLELIEIQREKRGWDGAIITNPNCSTICAVITLKPIMDKFGLEAVFIATMQAVSGAGYNGVPSMAILDNLIPFIKNEEEKMQTESLKLLGTLKDGKVELANFKISASCNRVAVIDGHTESIFVKTKEGAEPEEIKEVMDKFDPLKDLNLPTYAKPIVIREEIDRPQPRLDRNEGNGMSIVVGRIRKDPIFDVKYTALEHNTIRGAAGASVLNAEYFVKKYI”, the “soluble on expression in E. coli” value was “soluble”.
In the case of “MRTIPPDDVYISSTLPFEETTTEMMTTMETSTMTEKVCPEMPATTCMDLIKLGAKLELAEVDGCQVVQCTGGQIPRLITRNSVFSPKLYAGLSDATIVFPVPPTTLAGFGGKSFFDYYGLICDTFNGNFYWTMTKYPDGLIDLGGGQPILGSDGSYDGKQAPIEQVDCQEPK”, the “soluble on expression in E. coli” value is reported as “not soluble”.
With “MTQLKPGACWSDNPKKVLEMLSPMNIIAITRSIPENTPNSWFIYWLTKVEEGEVRENIYAISPTKLEILPDLVKKALKLGYDGVYIDGIEALVIENGFKSVAKFLLHIKDIVLAENKFIILTLDPRALKEEEIKIIEKEFKKLELSLEHHHHHH” the “soluble on expression in E. coli” value was “soluble”.
For “MSDHLGSSHDEGELSDESHKKSQRASSSDEPNPAKSNKGLESKMRESILSRLSKRKNSESDDDTTEQRFSIQPKNAQKAKEDRYRDKERDKKREKDKRDDRRDVRGPDARQKDRDFKGRQERSGRDQKVHEHRHHHHHRKHETDGHRTNRSNRDRSSERDSEKHKRHIDRHKKSSTTSPDNDKSPHKKSKHTDVPADAKLFDRILDPNYKKKDDDVLVIEDVEMSPIEILEEKEEKEIVEFTIDSPAGPKKYSKFESDPESDHDDTKPKSPGKAEDDDDVIEVLDDALHSDDDADSDEDKYLKTPEDREWEEMTETEQRLHKEAMKKRASMKQKTLIAQLPVFYPGLMGCRNIDEYECVNRVDEGTFGVVYRGKDKRTDEIVALKRLKMEKEKEGFPITALREINMLLKAGNHPNIVNVKEILLGSNMDKIYMAMEFVEHDMKSLLDTMSRRNKRFSIGEQKTLLQQLLSGIEHMHKLWILHRDLKTSNLLMSHKGILKIADFGLAREYGDPLKKFTSIVVTLWYRSPELLLGTRLYSTPVDMWSVGCIMAEFILLKPLFPGRGELEQIKKIFMEMGTPTESIWPGVTELDGWKALTFEKYPYNQLRKRFLAGRLLNDTGFKLLNGLLTLDPKNRFSATQALDHEWFTEEPYPVPPEEFPTFPAKSEQNKAPPPAKQKQQENRISHVDPETAKLLKQFEVRPEQVKPGGFSLKFDPTRF”, the “soluble on expression in E. coli” value was “not soluble”.
